Test results taken from publication PMC8172134.

Target: SARS-CoV spike prefusion stabilized ectodomain trimer (SARS-CoV) (UniProt P59594)
Experiment: cryo-EM structure

47D11 Fab fragment
stoichiometry N (Fab per spike trimer): 3
